Patent publication US20100278752A1 (RHODE ISLAND BOARD OF GOVERNORS FOR HIGHER EDUCATION, published 2010)

Assays:
Cathepsin L [1] = biological target: T1, Cathepsin L (Homo sapiens (Human), UniProt P07711 114-333); experiment: cell-based or functional assay
Cathepsin S = experiment: cell-based or functional assay
Cathepsin V = experiment: cell-based or functional assay
Cathepsin C = experiment: cell-based or functional assay
Cathepsin L [2] = biological target: T1, Cathepsin L; experiment: enzyme kinetics for tight binding inhibition: Morrison's equation, Ki* plotted against substrate concentration, y intercept of the linear regression
Cathepsin X/Z/P = Cathepsin X/Z/P (Homo sapiens (Human), UniProt Q9UBR2 62-303); experiment: cell-based or functional assay
Sequence of Cathepsin X/Z/P (Q9UBR2 62-303 limits assumed, form in doubt): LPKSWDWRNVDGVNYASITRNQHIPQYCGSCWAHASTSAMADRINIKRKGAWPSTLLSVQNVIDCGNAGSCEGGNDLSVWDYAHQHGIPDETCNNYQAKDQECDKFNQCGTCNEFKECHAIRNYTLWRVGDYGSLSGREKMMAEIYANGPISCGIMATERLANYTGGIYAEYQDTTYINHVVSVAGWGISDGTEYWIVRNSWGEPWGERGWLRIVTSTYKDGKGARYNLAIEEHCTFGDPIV

T1 sequence (P07711 114-333 limits assumed, form in doubt): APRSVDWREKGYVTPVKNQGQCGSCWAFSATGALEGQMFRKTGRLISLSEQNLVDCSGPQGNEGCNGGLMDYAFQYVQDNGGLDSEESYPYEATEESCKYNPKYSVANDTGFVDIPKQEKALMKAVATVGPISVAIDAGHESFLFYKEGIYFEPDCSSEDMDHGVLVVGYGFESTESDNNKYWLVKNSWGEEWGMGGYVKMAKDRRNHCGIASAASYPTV

Binder | IC50 (inhibitor concentration at which 50% inhibition of enzymatic activity is achieved); 20 pM enzyme (Cathepsin L [1]) | IC50 (inhibitor concentration at which 50% inhibition of enzymatic activity is achieved); 60 pM enzyme (Cathepsin S) | IC50 (inhibitor concentration at which 50% inhibition of enzymatic activity is achieved); 1 nM enzyme (Cathepsin V) | IC50 (inhibitor concentration at which 50% inhibition of enzymatic activity is achieved); 10 nM enzyme (Cathepsin C) | Ki (Cathepsin L [2]) | IC50 (inhibitor concentration at which 50% inhibition of enzymatic activity is achieved); 16 nM enzyme (Cathepsin X/Z/P)
Sialostatin L2 (other, Recombinant protein overexpressed in bacteria; also called second salivary cystatin; novel cystatin) MELALRGGYRERSNQDDPEYLELAHYATSTWSAQQPGKTHFDTVVEVLKVETQTVAGTNYRLTLKVAESTCELTSTYNKDTCQANANAAQRTCTTVIYRNLQGEKSISSFECAAA | 70.9 pM | 378 nM | 28.8 nM | 740 nM | 0.0655 nM | –
Sialostatin L (other) MTGVFGGYSERANHQANPEFLNLAHYATSTWSAQQPGKTHFDTVAEVVKVETQVVAGTNYRLTLKVAESTCELTSTYNKDTCLPKADAAHRTCTTVVFENLQGDKSVSPFECEAA | 126 pM | 0.7 nM | 24.1 nM | 52.2 nM | – | 937 nM
